# Key:
# 3×MBT domain of L3MBTL1 [1] = experiment: SILAC proteomic pull-down 3×MBT vs 3×MBTD355N from 293T nuclear extract, LC-MS/MS; format: binding, human; settings: for Protein Ratio 3xMBT/D355N: SILAC ratio, 293T nuclear extract pull-down, * = protein identified in only one labeling experiment
# Procedure: Protein pull-downs were performed as described above using 600 μg of nuclear extract prepared with isotopic labels as indicated. After eluting with glutathione, 3×MBT domain was removed by dialysis into high salt and rebinding to GSH-sepharose. Bound proteins were separated by SDS-PAGE and analyzed by in-gel tryptic digest followed by LC-MS/MS. Peptides were identified using MaxQuant version 1.2.2.5 (Cox and Mann (2008) Nat. Biotechnol. 26, 1367-1372) and candidate methylated peptides were verified by manual inspection.
# For stable isotope labeling by amino acids in cell culture (SILAC) experiments HEK 293T cells were grown for at least six doublings in DMEM for SILAC supplemented with 10% dialyzed fetal bovine serum (FBS), 230 mg/L L-proline and either 100 mg/L each of L-lysine and L-arginine (“light” medium), D4-L-lysine and ^13C6-L-arginine (“medium” media), or ^13C6^15N2-L-lysine and ^13C6^15N4-L-arginine (Thermo Scientific). Heavy methyl labeling used DMEM without L-Methionine or L-Cysteine supplemented with D3^13C-L-Methionine (Sigma), L-Cysteine (Sigma) and 10% dialyzed FBS.
# 600 μg of nuclear extract was incubated overnight rotating at 4° C. with 20 μl packed 3×MBT or 3×MBTD355N beads in a total volume of 250 μL with binding buffer. Supernatant was removed and saved for use as a loading control. Beads were washed 4×5 minutes with 0.5 mL binding buffer. Protein was eluted by incubating in 20 μL elution buffer (10 mg/mL glutathione in 50 mM Tris pH 8.0) rotating at 4° C. for four hours. Elutions from 3×MBT and 3×MBTD355N were combined and dialyzed overnight at 4° C. against 10,000× volume of dissociation buffer (50 mM Tris pH 7.5, 750 mM NaCl) in a 0.1 mL Slide-A-Lyzer MINI Dialysis Device with 3.5K molecular weight cutoff (Thermo Scientific). 80 μL of GSH-Sepharose was prepared by washing briefly three times with 0.5 mL binding buffer. Dialyzed proteins were added to the GSH-Sepharose and incubated 4 hours rotating at 4° C. to deplete the GST-fusion domains. Supernatant was transferred to a fresh 1.5 mL tube. Proteins were separated by SDS-PAGE on a 10% polyacrylamide gel and stained using SilverQuest Silver Staining Kit (Life Technologies). Lanes were excised, residual 3×MBT band was removed, and gel was diced into 0.5 mm cubes. Gel pieces were destained and processed by in-gel digestion (Carlson et al. (2011) Science Signaling 4) with sequencing grade trypsin (Promega) and the peptide sample was dried completely in a vacuum centrifuge. To prepare a loading control, 2 μL each of light and heavy nuclear extract were combined, 6 μL of 8M urea was added, proteins were denatured by adding 2 μL of 100 mM dithiothreitol in digest buffer (50 mM ammonium bicarbonate) and heating to 60° C. for 1 hour, cysteine was alkylated by adding 2.2 μL 100 mg/mL iodoacetamide in digest buffer and incubating 1 hour at room temperature in darkness, and proteins were digested by adding 80 μL trypsin (Promega) at 12.5 ng/μL in digest buffer and incubating overnight at room temperature in darkness. Digestion was stopped by adding 10 μL of 10% formic acid.
# Each experiment consisted of two sets of pull-downs: “forward” labeling with 3×MBT incubated with light nuclear extract and 3×MBTD355N with medium extract, and a second “reverse” labeling experiment with the label conditions swapped. Proteins were included in the results if they were quantified in both labeling directions. To determine reproducibility the entire experiment including the label swap was duplicated using independent protein preparations and a mass spectrometer at another institution.
# For 3×MBT pull-down experiment #1 the gel lane was processed and peptides were loaded off-line onto a first dimension trap column (Waters Xbridge, C18, 10 μm particle size, 100 Å pore size, 5 cm packing length, 150 μm column i.d.). […]
# 3×MBT domain of L3MBTL1 [2] = experiment: Triple SILAC pull-down, 3xMBT/3xMBTD355N ratio (cytoplasmic, nuclear and chromatin fractions of 293T cells); format: binding, human; settings: for 3xMBT/D355N UNC Heavy: experiment with UNC0638 in heavy SILAC media; for 3xMBT/D355N UNC Light: experiment with UNC0638 in light SILAC media;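 on all read-outs here: proteins quantified with MaxQuant, requiring at least two unique peptides and quantification in both label directions, normalized to the mean of proteins from a digested loading control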
# G9a and GLP = molecular target: T1, G9a and GLP (Homo sapiens, UniProt Q96KQ7+Q9H9B1); experiment: Triple SILAC pull-down after UNC0638 treatment of 293T cells, DMSO/UNC0638 ratio of protein captured by 3×MBT; format: cell-based; settings: for Relative to UNC0638 UNC Light: UNC0638 in light SILAC media; for Relative to UNC0638 Average: average of UNC Light and UNC Heavy experiments; for Relative to UNC0638 UNC Heavy: UNC0638 in heavy SILAC media;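 on all read-outs here: mass spectrometry (Q-Exactive) SILAC quantitation, DMSO/UNC0638 ratio computed after subtracting 3×MBTD355N mutant pull-down background, only proteins with at least twofold 3×MBT over mutant signal considered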
# T1 construct: endogenous in cells; host or cells: HEK 293T
# T1 sequence (Q96KQ7 2-1210 limits assumed): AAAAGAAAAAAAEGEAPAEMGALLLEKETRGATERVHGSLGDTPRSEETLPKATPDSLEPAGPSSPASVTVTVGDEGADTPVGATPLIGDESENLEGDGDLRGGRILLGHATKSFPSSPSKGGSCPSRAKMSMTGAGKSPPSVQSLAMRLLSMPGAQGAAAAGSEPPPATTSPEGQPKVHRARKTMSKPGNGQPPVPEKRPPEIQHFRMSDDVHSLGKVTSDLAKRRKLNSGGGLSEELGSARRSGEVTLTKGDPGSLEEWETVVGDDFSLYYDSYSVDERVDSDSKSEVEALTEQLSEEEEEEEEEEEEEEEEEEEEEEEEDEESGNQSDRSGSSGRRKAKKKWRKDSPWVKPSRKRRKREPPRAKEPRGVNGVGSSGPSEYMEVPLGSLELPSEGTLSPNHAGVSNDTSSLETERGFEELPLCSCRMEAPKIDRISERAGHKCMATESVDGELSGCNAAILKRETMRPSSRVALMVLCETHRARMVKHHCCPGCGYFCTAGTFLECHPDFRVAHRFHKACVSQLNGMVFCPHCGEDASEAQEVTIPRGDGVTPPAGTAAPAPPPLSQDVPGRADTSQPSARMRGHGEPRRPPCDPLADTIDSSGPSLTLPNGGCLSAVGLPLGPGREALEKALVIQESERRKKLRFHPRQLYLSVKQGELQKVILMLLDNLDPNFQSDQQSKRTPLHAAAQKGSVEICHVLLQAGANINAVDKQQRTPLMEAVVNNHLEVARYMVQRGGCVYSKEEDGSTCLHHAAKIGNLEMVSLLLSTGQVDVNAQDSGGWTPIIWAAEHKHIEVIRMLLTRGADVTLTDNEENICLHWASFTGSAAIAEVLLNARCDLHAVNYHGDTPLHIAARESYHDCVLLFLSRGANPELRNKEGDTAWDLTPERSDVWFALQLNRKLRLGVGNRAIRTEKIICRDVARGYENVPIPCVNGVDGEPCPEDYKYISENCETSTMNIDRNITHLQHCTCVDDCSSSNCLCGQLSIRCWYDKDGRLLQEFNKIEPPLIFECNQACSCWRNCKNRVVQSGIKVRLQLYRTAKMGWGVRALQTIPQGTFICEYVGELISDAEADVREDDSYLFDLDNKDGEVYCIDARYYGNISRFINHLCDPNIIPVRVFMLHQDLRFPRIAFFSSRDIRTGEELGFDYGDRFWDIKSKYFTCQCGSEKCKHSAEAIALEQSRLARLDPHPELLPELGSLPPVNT
# T1 sequence (Q9H9B1 2-1298 limits assumed): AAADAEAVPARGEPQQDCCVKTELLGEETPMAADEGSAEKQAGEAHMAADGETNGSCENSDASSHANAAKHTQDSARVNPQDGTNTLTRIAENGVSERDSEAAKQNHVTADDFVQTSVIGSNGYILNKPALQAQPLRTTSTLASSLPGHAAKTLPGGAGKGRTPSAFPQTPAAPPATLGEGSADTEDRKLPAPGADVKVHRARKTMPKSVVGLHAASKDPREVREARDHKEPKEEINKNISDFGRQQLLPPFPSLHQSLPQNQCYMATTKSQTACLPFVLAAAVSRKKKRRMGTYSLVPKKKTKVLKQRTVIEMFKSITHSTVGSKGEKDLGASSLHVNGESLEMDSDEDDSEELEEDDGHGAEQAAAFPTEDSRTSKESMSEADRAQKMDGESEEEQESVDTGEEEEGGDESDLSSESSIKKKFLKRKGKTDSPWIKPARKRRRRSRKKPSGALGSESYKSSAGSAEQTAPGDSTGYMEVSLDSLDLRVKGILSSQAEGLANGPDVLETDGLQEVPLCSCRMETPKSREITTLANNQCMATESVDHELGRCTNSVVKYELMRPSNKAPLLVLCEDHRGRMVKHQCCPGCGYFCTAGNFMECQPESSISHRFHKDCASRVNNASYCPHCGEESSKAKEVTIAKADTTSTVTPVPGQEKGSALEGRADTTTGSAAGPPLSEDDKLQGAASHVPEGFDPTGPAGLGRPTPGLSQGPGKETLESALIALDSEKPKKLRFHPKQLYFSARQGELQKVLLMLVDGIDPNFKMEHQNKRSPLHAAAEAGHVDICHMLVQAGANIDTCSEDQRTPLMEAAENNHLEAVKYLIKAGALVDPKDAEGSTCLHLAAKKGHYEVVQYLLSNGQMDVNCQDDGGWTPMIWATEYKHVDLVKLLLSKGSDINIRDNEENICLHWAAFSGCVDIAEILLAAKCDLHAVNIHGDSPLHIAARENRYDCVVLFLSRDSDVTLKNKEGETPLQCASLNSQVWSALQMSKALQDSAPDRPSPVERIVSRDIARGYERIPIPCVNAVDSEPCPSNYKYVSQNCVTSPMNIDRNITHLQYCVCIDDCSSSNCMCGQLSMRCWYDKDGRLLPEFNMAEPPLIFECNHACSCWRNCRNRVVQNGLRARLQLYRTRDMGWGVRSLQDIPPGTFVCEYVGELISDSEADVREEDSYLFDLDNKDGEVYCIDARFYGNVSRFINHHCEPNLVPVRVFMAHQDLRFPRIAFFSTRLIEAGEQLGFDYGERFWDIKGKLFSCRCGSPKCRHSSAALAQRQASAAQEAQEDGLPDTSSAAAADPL
# [3] = SILAC ratio, pull-down 3xMBT vs 3xMBTD355N
# [4] = SILAC ratio DMSO/UNC0638 of protein pulled down with 3xMBT
# [5] = SILAC ratio 3xMBT vs 3xMBTD355N pull-down, 293T cells, all values in log base 2
# [6] = SILAC ratio DMSO relative to UNC0638, pull-down with 3xMBT, all values in log base 2
Substance,3xMBT/D355N UNC Heavy (3×MBT domain of L3MBTL1 [2]; [3]) [log base 2],3xMBT/D355N UNC Light (3×MBT domain of L3MBTL1 [2]; [3]) [log base 2],Relative to UNC0638 UNC Light (G9a and GLP; [4]) [log base 2],Relative to UNC0638 Average (G9a and GLP) [log base 2],Relative to UNC0638 UNC Heavy (G9a and GLP; [4]) [log base 2],also measured
TUBB2C: protein with methylated lysine identified in 3xMBT pull-down,,,,,,Protein Ratio 3xMBT/D355N (3×MBT domain of L3MBTL1 [1]): 2.1
3×MBTD355N: 3×MBT with mutation of aspartate 355 to asparagine; abrogates binding to methyl-lysine; negative control [reference compound],,,,,,number of the 544 identified proteins enriched at 2-fold versus the other domain (3×MBT domain of L3MBTL1 [1]; SILAC): 3; percentage of the 544 identified proteins enriched at 2-fold versus the other domain (3×MBT domain of L3MBTL1 [1]; SILAC): 0.6%
hnRNP K: protein with methylated lysine identified in 3xMBT pull-down,,,,,,Protein Ratio 3xMBT/D355N (3×MBT domain of L3MBTL1 [1]): 8.0
hn RNP A/B: protein with methylated lysine identified in 3xMBT pull-down,,,,,,Protein Ratio 3xMBT/D355N (3×MBT domain of L3MBTL1 [1]): 13.4
DDX21,0.55,1.00,0.14,0.14,,
NBN,,,,,,3xMBT/D355N UNC Heavy (3×MBT domain of L3MBTL1 [2]; [5]): 1.68 log base 2; 3xMBT/D355N UNC Light (3×MBT domain of L3MBTL1 [2]; [5]): 1.52 log base 2; Relative to UNC0638 UNC Heavy (G9a and GLP; [6]): −0.14 log base 2; Relative to UNC0638 UNC Light (G9a and GLP; [6]): −0.46 log base 2; Relative to UNC0638 Average (G9a and GLP; all values in log base 2): −0.30 log base 2
HNRNPAB,4.00,4.21,0.32,0.20,0.09,
MDC1,2.31,2.83,0.11,0.24,0.36,
ZFR,2.89,3.14,0.13,0.11,0.09,
HSPA5,0.70,2.32,0.05,0.20,0.35,
EPRS,,,,,,3xMBT/D355N UNC Heavy (3×MBT domain of L3MBTL1 [2]; [5]): 0.46 log base 2; 3xMBT/D355N UNC Light (3×MBT domain of L3MBTL1 [2]; [5]): 1.98 log base 2; Relative to UNC0638 UNC Heavy (G9a and GLP; [6]): −0.64 log base 2; Relative to UNC0638 UNC Light (G9a and GLP; [6]): 0.63 log base 2; Relative to UNC0638 Average (G9a and GLP; all values in log base 2): −0.01 log base 2

# Source: patent US20140274782A1, “AFFINITY REAGENTS AND METHODS FOR DETECTION, PURIFICATION, AND PROTEOMIC ANALYSIS OF METHYLATED PROTEINS” (The Board of Trustees of the Leland Stanford Junior …, priority 2013, published 2014)
